{"source": "patent WO2019109974A1", "target": "hPD-L1(ECD)-mFc (human)", "sequence (chain, as listed by the source limits assumed)": "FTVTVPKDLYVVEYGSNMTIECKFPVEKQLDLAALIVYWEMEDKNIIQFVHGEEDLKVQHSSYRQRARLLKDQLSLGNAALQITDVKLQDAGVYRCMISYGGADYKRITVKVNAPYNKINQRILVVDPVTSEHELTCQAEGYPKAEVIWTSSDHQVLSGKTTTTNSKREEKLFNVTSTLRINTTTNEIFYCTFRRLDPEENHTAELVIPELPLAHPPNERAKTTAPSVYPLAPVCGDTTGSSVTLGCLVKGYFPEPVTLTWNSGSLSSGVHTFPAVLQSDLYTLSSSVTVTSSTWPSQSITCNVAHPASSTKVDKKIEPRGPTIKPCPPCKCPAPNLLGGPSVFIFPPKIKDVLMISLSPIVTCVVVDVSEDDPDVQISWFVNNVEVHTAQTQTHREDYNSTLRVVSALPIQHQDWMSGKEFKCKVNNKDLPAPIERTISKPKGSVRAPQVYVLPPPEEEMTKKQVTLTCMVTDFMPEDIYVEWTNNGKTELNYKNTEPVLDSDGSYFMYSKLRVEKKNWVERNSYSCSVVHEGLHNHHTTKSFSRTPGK", "test": "ELISA, hPD-L1-mFc coated"}
{"substance": "Tecentriq (antibody)", "values": [{"measurement": "EC50", "result": 0.142, "unit": "µg/mL"}]}
